{
  "source": "paper PMC6727212",
  "about": "(ACS Chemical Neuroscience, 2019)",
  "proteins": {"B1": {"name": "recombinant human stefin B wild-type (C3S) (natural protein, UniProt P04080 1-98, looked up)", "chain": "MMSGAPSATQPATAETQHIADQVRSQLEEKENKKFPVFKAVSFKSQVVAGTNYFIKVHVGDEDFVHLRVFQSLPHENKPLTLSNYQTNKAKHDELTYF"}, "B2": {"name": "human stefin B P11S (natural protein, UniProt P04080 1-98, looked up)", "chain": "B1 chain with P11S"}, "B3": {"name": "human stefin B P6L (natural protein, UniProt P04080 1-98, looked up)", "chain": "B1 chain with P6L"}, "B4": {"name": "human stefin B P36D (natural protein, UniProt P04080 1-98, looked up)", "chain": "B1 chain with P36D"}, "B5": {"name": "human stefin B P6L P74S (natural protein, UniProt P04080 1-98, looked up)", "chain": "B1 chain with P6L, P74S"}, "B6": {"name": "human stefin B P79S (natural protein, UniProt P04080 1-98, looked up)", "chain": "B1 chain with P79S"}, "B7": {"name": "human stefin B P11S P74S (natural protein, UniProt P04080 1-98, looked up)", "chain": "B1 chain with P11S, P74S"}, "B8": {"name": "human stefin B P74S P79S (natural protein, UniProt P04080 1-98, looked up)", "chain": "B1 chain with P74S, P79S"}, "B9": {"name": "human stefin B P74S (natural protein, UniProt P04080 1-98, looked up)", "chain": "B1 chain with P74S"}},
  "note": "Residue numbers refer to the chain shown, from its start. Names may count otherwise. “And” between values parts separate entries of the source, which are not always exact repeats. Equal entries are not always repeated.",
  "data": [
    {"target": "the molecule itself", "assay": "SEC; Superdex 75 (10 x 300 mm) on FPLC, room temperature, 0.5 mL/min, 500 uL of about 1 mg/mL protein; 10 mM phosphate, 0.15 M NaCl, pH 7.5 (legend and results; the methods say pH 7.0); equilibrium oligomeric state, stB wt as standard", "values": [
      {"protein": "B1", "stoichiometry N": 2},
      {"protein": "B2", "binding result": "binds"},
      {"protein": "B3", "binding result": "binds"},
      {"protein": "B4", "binding result": "binds"},
      {"protein": "B5", "stoichiometry N": 2},
      {"protein": "B6", "stoichiometry N": "2 and 4"},
      {"protein": "B7", "stoichiometry N": 2},
      {"protein": "B8", "stoichiometry N": 2}
    ]},
    {"target": "the molecule itself", "assay": "SEC; Superdex 75 (10 x 300 mm) on FPLC, room temperature, 0.5 mL/min, 500 uL of about 1 mg/mL protein; 10 mM phosphate, 0.15 M NaCl, pH 7.5 (legend and results; the methods say pH 7.0); equilibrium oligomeric state, stB wt as standard", "remark": "another data set of the same source", "values": [
      {"protein": "B9", "binding result": "binds"}
    ]}
  ]
}
